Test results reported in patent US20150010546A1 (Ablynx, published 2015).

Tests used:
[1] = biological target: T1, human HGF (R&D material and Peprotech material, values averaged over both) (human, UniProt P14210 32-728); experiment: SPR (Biacore T100), purified Nanobody, biphasic dissociation, kd2 fitted 300-720 s after injection start
T1 construct: As printed they differ in one letter

[2] = biological target: T1, human HGF (R&D material and Peprotech …); experiment: SPR (Biacore T100), purified Nanobody, biphasic dissociation, kd1 fitted 125-185 s after injection start; kd1: early phase of the bi-phasic dissociation, fitted 125 to 185 seconds after injection start
[3] = biological target: T2, human HGF (R&D Systems, 294-HG/CF) (human, UniProt P14210 32-728); experiment: SPR (Biacore T100), HGF amine-coupled to CM5 chip, periplasmic extract at one dilution
T2 construct: The entry begins at QRKRR, without signal peptide; Amine-coupled to the chip in SPR and biotinylated in AlphaScreen; also called rec hHGF (R&D systems)
Procedure: Off-rate constants (Koff) of individual Nanobodies were determined by surface plasmon resonance on a Biacore T100 instrument.
Human HGF (R&D) was amine-coupled to a CM5 sensor chip at a density of 2500 relative units. Remaining reactive groups were inactivated using ethanolamine. Nanobody binding was assessed at a single dilution of periplasmic extract, whereas c-Met was tested with a single concentration of 10 nM. Each sample was injected for 2 min at a flow rate of 45 μl/min to allow for binding to chip-bound antigen. Next, binding buffer without Nanobody was sent over the chip at the same flow rate to allow dissociation of bound Nanobody. After 10 min, remaining bound analyte was removed by injecting regeneration solution (1M NaCl, 50 mM NaOH).

[4] = biological target: T2, human HGF (R&D Systems, 294-HG/CF); experiment: AlphaScreen competition, biotinylated HGF and c-Met-Fc, dilution series of purified Nanobody
Procedure: (§1) In brief, 5 μl of 1/5 prediluted periplasmic extract of individual Nanobody clones were incubated with 3 nM biotinylated HGF, 2 nM c-Met-Fc, streptavidin coated donor beads and anti-human IgG1 Fc Nanobody covalently coupled AlphaScreen acceptor beads. Monoclonal antibody clone 24612 (R&D systems) known to inhibit the HGF/c-Met-Fc interaction, was used as a positive control. Assays were read in an Envision AlphaScreen™ option fitted multimode reader (Perkin Elmer). Individual clones were scored as putative HGF/c-Met-Fc interaction inhibiting if the presence of the periplasmic extract decreased the fluorescent signal of the acceptor beads. Both inhibitory and non-inhibitory clones were identified. A 10-fold reduction in signal with respect to the negative control (irrelevant periplasmic extract and buffer) was used to select the HGF/c-Met inhibiting Nanobodies. As a positive control, anti-HGF monoclonal antibody (R&D systems, clone 24612) was included. FIG. 2 depicts an example of screen of periplasmic extracts using AlphaScreen.
(§2) Serial dilutions of purified Nanobodies were then analyzed for their ability to block the interaction of human HGF with c-Met-Fc using the same AlphaScreen™ assay as described above (1.4). […]

[5] = biological target: T1, human HGF (R&D material and Peprotech …); experiment: SPR (Biacore T100), summary table
[6] = biological target: T1, human HGF (R&D material and Peprotech …); experiment: SPR (Biacore T100), purified Nanobody, biphasic dissociation, kd1 fitted 125-185 s after injection start
[7] = biological target: T2, human HGF (R&D Systems, 294-HG/CF); experiment: AlphaScreen competition, serial dilution of purified Nanobody; inhibition of biotinylated human HGF binding to c-Met-Fc
Procedure: as §1, §2

T1 sequence (P14210 32-728 limits assumed): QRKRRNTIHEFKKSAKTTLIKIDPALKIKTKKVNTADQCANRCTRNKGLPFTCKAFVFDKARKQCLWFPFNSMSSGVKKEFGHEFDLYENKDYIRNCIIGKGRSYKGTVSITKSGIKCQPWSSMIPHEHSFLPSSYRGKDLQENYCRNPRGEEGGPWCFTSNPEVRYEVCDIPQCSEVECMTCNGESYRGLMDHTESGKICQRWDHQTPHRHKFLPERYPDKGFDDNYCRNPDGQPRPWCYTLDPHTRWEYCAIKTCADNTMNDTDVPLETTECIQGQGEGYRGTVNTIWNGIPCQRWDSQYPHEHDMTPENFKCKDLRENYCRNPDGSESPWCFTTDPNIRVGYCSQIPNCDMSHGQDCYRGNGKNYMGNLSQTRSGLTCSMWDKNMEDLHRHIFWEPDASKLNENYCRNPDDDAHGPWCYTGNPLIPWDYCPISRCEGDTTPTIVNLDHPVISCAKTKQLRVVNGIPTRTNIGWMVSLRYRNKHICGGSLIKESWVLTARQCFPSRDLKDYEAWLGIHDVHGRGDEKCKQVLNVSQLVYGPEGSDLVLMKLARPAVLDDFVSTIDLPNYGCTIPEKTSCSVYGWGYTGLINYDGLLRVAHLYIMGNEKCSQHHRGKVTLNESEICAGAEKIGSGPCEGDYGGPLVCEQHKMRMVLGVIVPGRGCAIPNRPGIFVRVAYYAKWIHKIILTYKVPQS
T2 sequence (P14210 32-728 limits assumed): as above

B1: 9H5 (VHH)
VHH: EVQLVESGGGLVQPGGSLRLSCAASGSIFNLNPMGWYRQAPGKQRELVATVTGEGRTNYSDSVKGRFTISRDNAKNTVYLQMNSLKPEDTAVYYCNAAFWAYDDAYWGQGTQVTVSS
notes: anti-HGF Nanobody clone; not shown: c-myc and His6 tags
- koff [1]: 0.000952 s⁻¹
- koff [2]: 0.00241 s⁻¹
- koff [3]: 0.00155 s⁻¹
- IC50 [4]: 2.1 nM
- koff [5]: 0.001 s⁻¹

B2: 5C7 (VHH)
VHH: EVQLVESGGGLVQAGDSLRLSCAASGGTFGSSHMAWFRQVPEKEREFVAAISRSGGTTYYADSVKGRCTISRDNAKNTVYLQMNSLKPEDTAVYYCAAARFWGSTSTRMDDYQYWGQGTQVTVSS
notes: as for B1
- koff [1]: 0.000821 s⁻¹
- koff [6]: 0.00605 s⁻¹
- koff [3]: 0.0019 s⁻¹
- IC50 (read off the curve) [7]: ~10 nM
